From WO2021223719A1 (dated 2021)
Numbering of substitutions follows the chain as printed. Values belong to the binder of their own block, whether it stands above or below them.

Target: FMC63-scFv-mFc protein
Test: ELISA, plate coated with FMC63-scFv-mFc, biotin-labelled FMC63-scFv-mFc for detection

EC50: 0.113 µg/mL
B1: mAb020 (52H8C4) (antibody, human IgG1, kappa, V domains shown)
VH: EVMLVESGGGLVKPGGSLKLSCAASGFTFSSYTMSWVRQTPEKRLEWVATITGGGGDTFYPDSVKGRFTISRDNAKNTLYLQVSSLRSEDTAVYHCARQYYDYDGGAMDYWGQGTSVTVSS
VL: DIVLTQSPASLAVSLGQRAIISCKASQSVSFAGTGLMHWYQQKPGQQPKLLIYRASNLEAGVPTRFSGSGSRTDFTLNIHPVEEDDAATYYCQQSREYPRTFGGGTKLEIKR
notes: Tested as the murine hybridoma antibody

EC50: 0.023 µg/mL
B2: mAb02 (8B3H4) (antibody, human IgG1, kappa, V domains shown)
VH: QVQVQQPGAELVKPGASVRLSCKASGYTFTTYWMHWVKQRPGQGLEWIGMIHPNSDSINYNEKFKSKATLIVDKSSSTFYMQLSSLTSEDSAVYYCARTDGYYAPYFAMDYWGQGTSVTVSS
VL: DIQMTQTTSSLSASLGDRVTISCRASQDIRDNLNWYQQKPDGTVKLLIYYKSRSHSGVPSRFSGSGSGTDYSLTISNLEQEDIATYFCQQGNTLPFTFGSGTKLEIKR
notes: as for B1

EC50: 0.099 µg/mL
B3: mAb07 (27C5E11) (antibody, V domains shown)
VH: B2 VH with V4L, R19K, T31S, S55G, I58T, S66T, I71T, F79A
VL: DIQMTQSTSSLSASLGDRVTISCRASQDINNYLNWYQQKPDGTVKLLIYYTSRLHLGVPSRFSGSGSGTDYSLTISNLEQEDIATYFCQQGNTLPFTVGSGTKLEIK

EC50: 0.0299 µg/mL
B4: mAb06 (26E7D2) (antibody, human IgG1, kappa, V domains shown)
VH: QVQLQQPGAELVKPGASVKLSCKVSGYTFTSYWIHWVKQRPGRGLEWIGRIDPISGGANYNEKFKTKATLTVDKPSSTAYMQLSSLTSEDSAVYYCARWGGGDYWGHGTTLTVSS
VL: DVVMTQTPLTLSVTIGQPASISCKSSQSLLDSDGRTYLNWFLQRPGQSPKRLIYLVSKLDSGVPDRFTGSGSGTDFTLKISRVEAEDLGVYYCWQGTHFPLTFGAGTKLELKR
notes: as for B1

EC50: 0.0512 µg/mL
B5: mAb023 (75H6C7) (antibody, V domains shown)
VH: QAQLQQPGAELVMPGASVKLSCKASGYTFTNYWMNWMKQRPGQGLEWIGEIDPSDSDKNYNQKFKDKATLTVDKSSSTAYMQLSSLTSEDSAVYYCAGGYYGMDFWGQGTSVTVSS
VL: DVVMTQTPLSLPVSLGDQASISCRSSQSLENSKGNTYLNWYVQKPGQSPQLLIYRVSTRFSGVLDRFSGSGSGTDFTLKISRVEAEDLGVYFCLQLTHVPFTFGSGTKLEIK
